Tests used:
Assay in all cases: Calcium mobilization (FLIPR, Fluo-3) in transfected COS-7 cells
Assay type in all cases: cell-based
h 5HT1B = h 5HT1B (Homo sapiens, UniProt P28222); details: h 5HT1B + chimera in COS-7; agonist 5HT, max 100 μM
Method in brief: (§1)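 Read-out is maximum change in Fluo-3 fluorescence (FLIPR, 488 nm excitation) over 3 min at room temperature after agonist addition; concentration-response curves were fitted with the Hill equation. Cells were COS-7 transiently expressing the GPCR plus chimeric G protein(s).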

h 5HT1D = h 5HT1D (Homo sapiens, UniProt P28221); details: h 5HT1D + chimera in COS-7; agonist 5HT, max 100 μM
Method in brief: as §1

h 5HT1E = h 5HT1E (Homo sapiens, UniProt P28566); details: h 5HT1E + chimera in COS-7; agonist 5HT, max 100 μM
Method in brief: as §1

h 5HT1F = target: T1, h 5HT1F (Homo sapiens, UniProt P30939); details: h 5HT1F + chimera in COS-7; agonist 5HT, max 100 μM
T1 sequence (P30939 1-366): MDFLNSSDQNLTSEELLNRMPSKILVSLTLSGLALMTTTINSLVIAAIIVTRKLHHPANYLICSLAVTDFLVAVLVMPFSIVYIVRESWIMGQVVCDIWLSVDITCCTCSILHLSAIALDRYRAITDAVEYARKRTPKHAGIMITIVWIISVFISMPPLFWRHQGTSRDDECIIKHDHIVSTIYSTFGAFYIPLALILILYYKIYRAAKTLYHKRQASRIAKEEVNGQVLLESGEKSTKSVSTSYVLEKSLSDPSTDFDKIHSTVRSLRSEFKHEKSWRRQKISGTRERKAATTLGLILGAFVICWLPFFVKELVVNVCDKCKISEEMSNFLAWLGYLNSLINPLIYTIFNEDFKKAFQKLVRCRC
Method in brief: as §1

h 5HT4 = h 5HT4 (Homo sapiens, UniProt Q13639); details: h 5HT4 + chimera in COS-7; agonist 5HT, max 100 μM
Method in brief: as §1

h D2 = target: T2, h D2 (Homo sapiens, UniProt P14416); details: h D2 + chimera in COS-7; agonist DA, max 100 μM
T2 construct: expressed in transfected cells; host or cells: COS-7
Method in brief: as §1

h Y1 = target: T3, h Y1 (Homo sapiens, UniProt P25929); details: h Y1 + chimera in COS-7; agonist NPY, max 10 μM
T3 construct: expressed in transfected cells; host or cells: COS-7
T3 sequence (P25929 1-384): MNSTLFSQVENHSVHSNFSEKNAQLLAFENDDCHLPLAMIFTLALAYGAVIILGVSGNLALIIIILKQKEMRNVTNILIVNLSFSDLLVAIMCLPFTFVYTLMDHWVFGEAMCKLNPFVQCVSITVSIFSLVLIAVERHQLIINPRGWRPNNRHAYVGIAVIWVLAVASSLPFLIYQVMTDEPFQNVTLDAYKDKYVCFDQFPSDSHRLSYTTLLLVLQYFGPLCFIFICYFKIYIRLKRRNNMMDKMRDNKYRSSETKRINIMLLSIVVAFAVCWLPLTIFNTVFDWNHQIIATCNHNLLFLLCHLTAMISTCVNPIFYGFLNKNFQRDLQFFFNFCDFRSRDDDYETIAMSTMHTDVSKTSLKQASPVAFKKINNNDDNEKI
Method in brief: as §1

h Y4 = target: T4, h Y4 (Homo sapiens, UniProt P50391); details: h Y4 + chimera in COS-7; agonist PP, max 10 μM
T4 construct: expressed in transfected cells; host or cells: COS-7
Method in brief: as §1

h β2 adr = h β2 adr (Homo sapiens, UniProt P07550); details: h β2 adr + chimera in COS-7; agonist NE, max 100 μM
Method in brief: as §1

m 5HT5B = m 5HT5B (Mus musculus, UniProt P31387); details: m 5HT5B + chimera in COS-7; agonist 5HT, max 100 μM
Method in brief: as §1

Sequence of h 5HT1D (P28221 whole entry): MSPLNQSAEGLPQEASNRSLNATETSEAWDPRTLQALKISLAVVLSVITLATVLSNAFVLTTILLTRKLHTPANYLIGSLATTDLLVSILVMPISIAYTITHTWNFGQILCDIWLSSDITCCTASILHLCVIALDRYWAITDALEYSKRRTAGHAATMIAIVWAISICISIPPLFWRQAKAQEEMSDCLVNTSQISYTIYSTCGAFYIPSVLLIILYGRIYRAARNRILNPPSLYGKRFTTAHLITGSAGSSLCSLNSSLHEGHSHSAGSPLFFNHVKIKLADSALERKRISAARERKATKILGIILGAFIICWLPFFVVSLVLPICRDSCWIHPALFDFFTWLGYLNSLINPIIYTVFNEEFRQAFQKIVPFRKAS
Sequence of m 5HT5B (P31387 whole entry): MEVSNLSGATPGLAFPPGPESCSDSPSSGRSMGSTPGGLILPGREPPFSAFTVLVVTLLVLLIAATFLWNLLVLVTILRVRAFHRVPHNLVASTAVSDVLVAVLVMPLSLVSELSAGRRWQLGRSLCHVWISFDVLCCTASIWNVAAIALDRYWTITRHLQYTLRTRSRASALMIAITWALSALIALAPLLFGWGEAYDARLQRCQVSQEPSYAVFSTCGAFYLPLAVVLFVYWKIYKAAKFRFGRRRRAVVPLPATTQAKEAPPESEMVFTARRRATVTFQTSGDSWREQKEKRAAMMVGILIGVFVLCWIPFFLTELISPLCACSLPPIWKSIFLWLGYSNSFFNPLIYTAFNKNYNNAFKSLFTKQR
Sequence of h 5HT1E (P28566 whole entry): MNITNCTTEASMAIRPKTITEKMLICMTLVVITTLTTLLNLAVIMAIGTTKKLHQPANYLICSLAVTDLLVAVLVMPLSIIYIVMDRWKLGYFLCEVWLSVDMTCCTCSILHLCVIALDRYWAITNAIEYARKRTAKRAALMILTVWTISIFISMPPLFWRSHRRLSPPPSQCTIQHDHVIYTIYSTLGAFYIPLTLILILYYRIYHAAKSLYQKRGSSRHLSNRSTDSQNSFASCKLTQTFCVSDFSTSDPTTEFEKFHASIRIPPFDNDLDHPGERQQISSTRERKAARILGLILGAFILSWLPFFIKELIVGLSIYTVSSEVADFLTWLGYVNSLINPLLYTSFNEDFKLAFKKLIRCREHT
Sequence of h 5HT4 (Q13639 whole entry): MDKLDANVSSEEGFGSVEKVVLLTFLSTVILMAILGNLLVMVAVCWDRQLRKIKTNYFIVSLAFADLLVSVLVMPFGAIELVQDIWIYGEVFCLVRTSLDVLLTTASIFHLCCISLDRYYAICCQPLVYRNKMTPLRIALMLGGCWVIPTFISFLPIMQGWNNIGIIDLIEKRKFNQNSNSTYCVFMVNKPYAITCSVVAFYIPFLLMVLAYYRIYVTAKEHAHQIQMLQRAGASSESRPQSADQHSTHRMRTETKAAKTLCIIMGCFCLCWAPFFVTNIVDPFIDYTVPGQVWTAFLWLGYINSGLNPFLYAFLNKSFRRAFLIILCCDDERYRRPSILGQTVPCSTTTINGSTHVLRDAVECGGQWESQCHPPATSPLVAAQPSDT
Sequence of h 5HT1B (P28222 whole entry): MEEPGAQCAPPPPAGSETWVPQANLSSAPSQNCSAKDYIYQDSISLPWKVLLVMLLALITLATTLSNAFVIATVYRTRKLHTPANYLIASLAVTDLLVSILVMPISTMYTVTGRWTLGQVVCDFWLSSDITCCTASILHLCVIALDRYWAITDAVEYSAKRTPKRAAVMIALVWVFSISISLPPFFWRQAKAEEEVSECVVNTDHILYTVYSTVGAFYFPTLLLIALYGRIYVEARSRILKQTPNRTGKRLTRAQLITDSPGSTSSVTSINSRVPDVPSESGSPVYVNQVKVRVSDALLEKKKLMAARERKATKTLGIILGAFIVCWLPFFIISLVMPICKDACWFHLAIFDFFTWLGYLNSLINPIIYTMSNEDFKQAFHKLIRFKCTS
T4 sequence (P50391 whole entry): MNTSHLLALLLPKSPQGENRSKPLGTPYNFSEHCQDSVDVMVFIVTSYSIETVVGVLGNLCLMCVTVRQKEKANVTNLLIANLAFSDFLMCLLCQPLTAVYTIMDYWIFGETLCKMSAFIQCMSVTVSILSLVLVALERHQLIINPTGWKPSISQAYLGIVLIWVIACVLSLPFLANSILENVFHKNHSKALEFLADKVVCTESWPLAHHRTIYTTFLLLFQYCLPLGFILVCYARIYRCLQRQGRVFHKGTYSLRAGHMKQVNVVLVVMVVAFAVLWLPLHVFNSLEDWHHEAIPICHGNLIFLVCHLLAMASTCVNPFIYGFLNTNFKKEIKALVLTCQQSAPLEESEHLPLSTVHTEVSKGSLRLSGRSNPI
T2 sequence (P14416 whole entry): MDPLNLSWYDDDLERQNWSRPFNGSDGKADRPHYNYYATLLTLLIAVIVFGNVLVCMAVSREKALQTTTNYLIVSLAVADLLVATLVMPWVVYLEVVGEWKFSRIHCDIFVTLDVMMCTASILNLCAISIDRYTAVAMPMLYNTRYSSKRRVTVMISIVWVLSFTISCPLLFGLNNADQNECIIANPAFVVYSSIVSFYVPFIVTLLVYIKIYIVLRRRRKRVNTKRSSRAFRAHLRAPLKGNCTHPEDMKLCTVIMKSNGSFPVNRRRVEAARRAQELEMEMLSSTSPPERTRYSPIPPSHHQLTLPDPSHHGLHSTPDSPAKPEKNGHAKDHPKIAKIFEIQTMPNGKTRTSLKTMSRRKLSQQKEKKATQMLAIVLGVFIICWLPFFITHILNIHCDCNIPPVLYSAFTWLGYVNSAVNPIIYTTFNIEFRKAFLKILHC

Row | Molecule | MAXIMAL SIGNAL (FLUORESCENCE UNITS) (h 5HT1B) | MAXIMAL SIGNAL (FLUORESCENCE UNITS) (h 5HT1D) | MAXIMAL SIGNAL (FLUORESCENCE UNITS) (h 5HT1E) | MAXIMAL SIGNAL (FLUORESCENCE UNITS) (h 5HT1F) | MAXIMAL SIGNAL (FLUORESCENCE UNITS) (h 5HT4) | MAXIMAL SIGNAL (FLUORESCENCE UNITS) (h D2) | MAXIMAL SIGNAL (FLUORESCENCE UNITS) (h Y1) | MAXIMAL SIGNAL (FLUORESCENCE UNITS) (h Y4) | MAXIMAL SIGNAL (FLUORESCENCE UNITS) (h β2 adr) | MAXIMAL SIGNAL (FLUORESCENCE UNITS) (m 5HT5B)
1 | cGαq/z5: chimeric Gα subunit: C-terminal final 5 amino acids of C. elegans Gαq replaced with those of hGαz (SEQ ID NO: 1) (protein, C. elegans) MACCLSEEAREQKRINQEIEKQLQRDKRNARRELKLLLLGTGESGKSTFIKQMRIIHGQGYSEEDKRAHIRLVYQNVFMAIQSMIRAMDTLDIKFGNESEELQEKAAVVREVDFESVTSFEEPYVSYIKELWEDSGIQECYDRRREYQLTDSAKYYLSDLRRLAVPDYLPTEQDILRVRVPTTGIIEYPFDLEQIIFRMVDVGGQRSERRKWIHCFENVTSIMFLVALSEYDQVLVECDNENRMEESKALFRTIITYPWFTNSSVILFLNKKDLLEEKILYSHLADYFPEYDGPPRDPIAAREFILKMFVDLNPDADKIIYSHFTCATDTENIRFVFAAVKDTILQHNLKYIGLC | 929 fluorescence units | 414 fluorescence units | 229 fluorescence units | 243 fluorescence units | 1011 fluorescence units | 7615 fluorescence units | 7722 fluorescence units | 9422 fluorescence units | 1842 fluorescence units | 265 fluorescence units
2 | cGαq/z9: C. elegans Gαq with Gαz portion of the C-terminal tail extended to 9 amino acids (SEQ ID NO: 2) (protein, C. elegans) MACCLSEEAREQKRINQEIEKQLQRDKRNARRELKLLLLGTGESGKSTFIKQMRIIHGQGYSEEDKRAHIRLVYQNVFMAIQSMIRAMDTLDIKFGNESEELQEKAAVVREVDFESVTSFEEPYVSYIKELWEDSGIQECYDRRREYQLTDSAKYYLSDLRRLAVPDYLPTEQDILRVRVPTTGIIEYPFDLEQIIFRMVDVGGQRSERRKWIHCFENVTSIMFLVALSEYDQVLVECDNENRMEESKALFRTIITYPWFTNSSVILFLNKKDLLEEKILYSHLADYFPEYDGPPRDPIAAREFILKMFVDLNPDADKIIYSHFTCATDTENIRFVFAAVKDTILQNNLKYIGLC | 1217 fluorescence units | 504 fluorescence units | 238 fluorescence units | 384 fluorescence units | 1696 fluorescence units | 4305 fluorescence units | 6728 fluorescence units | 7397 fluorescence units | 1697 fluorescence units | 443 fluorescence units
